From PMC9917425 (2023)
Substitutions are numbered along the chain they refer to.

B1: α-dystroglycan (α-DG) (protein)
chain: HWPSEPSEAVRDWKNQLEASMHSVLSDFQEAVPTVVGIPDGTAVVGRSFRVSIPTDLIASSGEIIKVSAAGKEALPSWLHWDPHSHILEGLPLDTDKGVHYISVSAARLGANGSHVPQTSSVFSIEVYPEDHNEPQSVRAASSDPGEVVPSACAADEPVTVLMVILDADLTKMTPKQRIDLLNRMQSFSEVELHNMKLVPVVNNRLFDMSAFMAGPGNAKKVVENGALLSWKLGCSLNQNSVPDIRGVETPAREGAMSAQLGYPVVGWHIANKKPTLPKRLRRQIHATPTPVTAIGPPTTAIQEPPSRIVPTPTSPAIAPPTETMAPPVRDPVPGKPTVTIRTRGAIIQTPTLGPIQPTRVSEAGTTVPGQIRPTLTIPGYVEPTAVITPPTTTTKKPRVSTPKPATPSTDSSTTTTRRPTKKPRTPRPVPRVTTKAPITRLETASPPTRIRTTTSGVPRGGEPNQRPELKNHIDRVDAWVGTYFEVKIPSDTFYDNEDTTTDKLKLTLKLREQQLVGEKSWVQFNSNSQLMYGLPDSSHVGKHEYFMHATDKGGLSAVDAFEIHVHKRPQGDKAPARFKARLAGDPAPVVNDIHKKIALVKKLAFAFGDRNCSSITLQNITRG
B2: α-dystroglycan (α-DG) (protein)
chain: B1 chain with M163T
modifications: matriglycan O-glycosylation (full-length)
B3: α-dystroglycan lacking N-terminal domain (M-α-DGN KO) 317-653 (protein)
chain: TPVTAIGPPTTAIQEPPSRIVPTPTSPAIAPPTETMAPPVRDPVPGKPTVTIRTRGAIIQTPTLGPIQPTRVSEAGTTVPGQIRPTLTIPGYVEPTAVITPPTTTTKKPRVSTPKPATPSTDSSTTTTRRPTKKPRTPRPVPRVTTKAPITRLETASPPTRIRTTTSGVPRGGEPNQRPELKNHIDRVDAWVGTYFEVKIPSDTFYDNEDTTTDKLKLTLKLREQQLVGEKSWVQFNSNSQLMYGLPDSSHVGKHEYFMHATDKGGLSAVDAFEIHVHKRPQGDKAPARFKARLAGDPAPVVNDIHKKIALVKKLAFAFGDRNCSSITLQNITRGSI
modifications: short non-elongated matriglycan O-glycosylation

target: laminin-111 (Mus musculus, UniProt P19137); test: solid-phase binding assay

Kd [nM]	Binder
1.9	B1
0.966	B2
2.32	B3
